Experimental findings from patent US20110008344A1 (THOMAS JEFFERSON UNIVERSITY, published 2011) are described below.

Where two headings read alike, the source gives them in different places.

One may read the kon as the rate constant with which the complex forms. Usually Kd stands for the concentration at which binding is half-saturated.

Assay [1] concerns the target T1, recombinant 50 kD C-terminal BoNT/A domain (HC50A) (Clostridium botulinum, UniProt P0DPI1 861-1296). The assay is described as follows: KinExA Direct Kinetics method, […]; KinExA, solution phase. (In general: A kinetic exclusion assay measures how much of one partner remains free in solution.)
Assay [2] addresses T1, recombinant 50 kD C-terminal BoNT/A …. The assay is described as follows: SPR (Biacore 3000), 13A immobilized on CM5 chip, HC50A as analyte.
For assay [3] the target is unchanged. The assay is described as follows: KinExA, solution phase.
The target is the same in assay [4].

B1: botulinum neurotoxin 13A antibody (human monoclonal antibody produced by hybridoma 13A, ATCC PTA-8871) (antibody, V domains shown)
VH: EVQLVESGGGLVQPGRSLRLSCTASGFTFGDSAMSWVRQAPGKGLEWVGFIRGKPYGGKPEYAASVKGRFTISRDDSKSIAYLQMNSLKTEDTAVYYCTAGMTTVTIYDYWGQGTLVTVSS
VL: QPLSVSVALGQTAGITCEGNNIGSKNVHWYQQKPGQAPVLVIYRDSNRPSGIPERFSGFNSGNTATLTISRVQAGDEADYYCQVWDSSTGVFGGGTELTVLG
For B1, the figures for the kon in assay [1] and in assay [2] were 7.2e+06 M⁻¹ s⁻¹ and 1.7e+07 M⁻¹ s⁻¹, respectively. Besides, the values for the Kd in assay [3] and in assay [4] were 97 pM and 52 pM, respectively.
